From the Human Domainome abundance scans (Beltran et al. 2025)
± gives the uncertainty stated by the source.

B1: Ankyrin-1, residues 1405 to 1484; numbered along this chain, P16157 (parent)
chain: MKMAVISEHLGLSWAELARELQFSVEDINRIRVENPNSLLEQSVALLNLWVIREGQNANMENLYTALQSIDRGEIVNMLE

Variants of: B1
Experiment: abundance fitness (aPCA) (normalised: wild type 0, dead -1); higher = more abundant; growth selection in yeast, the domain comes from the species named
Details: Homo sapiens

Variant | abundance fitness
MKMAVISEHLGLSWAELARELQFSVEDINRIRVENPNSLPEQSVALLNLWVIREGQNANMENLYTALQSIDRGEIVNMLE [L40P] | -0.428 ± 0.075
MKMAVISEHLGLSWAELARELQFSVEDINRIRVENPNSLHEQSVALLNLWVIREGQNANMENLYTALQSIDRGEIVNMLE [L40H] | -0.136 ± 0.11
MKMAVISEHLGLSWAELARELQFSVEDINRIRVENPNSLSEQSVALLNLWVIREGQNANMENLYTALQSIDRGEIVNMLE [L40S] | -0.16 ± 0.059
MKMAVISEHLGLSWAELARELQFSVEDINRIRVENPNSLQEQSVALLNLWVIREGQNANMENLYTALQSIDRGEIVNMLE [L40Q] | -0.029 ± 0.17
MKMAVISEHLGLSWAELARELQFSVEDINRIRVENPNSLMEQSVALLNLWVIREGQNANMENLYTALQSIDRGEIVNMLE [L40M] | -0.067 ± 0.081
MKMAVISEHLGLSWAELARELQFSVEDINRIRVENPNSLYEQSVALLNLWVIREGQNANMENLYTALQSIDRGEIVNMLE [L40Y] | -0.189 ± 0.11
MKMAVISEHLGLSWAELARELQFSVEDINRIRVENPNSLAEQSVALLNLWVIREGQNANMENLYTALQSIDRGEIVNMLE [L40A] | -0.11 ± 0.052
MKMAVISEHLGLSWAELARELQFSVEDINRIRVENPNSLKEQSVALLNLWVIREGQNANMENLYTALQSIDRGEIVNMLE [L40K] | 0.182 ± 0.06
MKMAVISEHLGLSWAELARELQFSVEDINRIRVENPNSLVEQSVALLNLWVIREGQNANMENLYTALQSIDRGEIVNMLE [L40V] | 0.011 ± 0.052
MKMAVISEHLGLSWAELARELQFSVEDINRIRVENPNSLCEQSVALLNLWVIREGQNANMENLYTALQSIDRGEIVNMLE [L40C] | -0.373 ± 0.097
MKMAVISEHLGLSWAELARELQFSVEDINRIRVENPNSLEEQSVALLNLWVIREGQNANMENLYTALQSIDRGEIVNMLE [L40E] | -0.032 ± 0.099
MKMAVISEHLGLSWAELARELQFSVEDINRIRVENPNSLREQSVALLNLWVIREGQNANMENLYTALQSIDRGEIVNMLE [L40R] | 0.089 ± 0.059
MKMAVISEHLGLSWAELARELQFSVEDINRIRVENPNSLFEQSVALLNLWVIREGQNANMENLYTALQSIDRGEIVNMLE [L40F] | 0.015 ± 0.067
MKMAVISEHLGLSWAELARELQFSVEDINRIRVENPNSLNEQSVALLNLWVIREGQNANMENLYTALQSIDRGEIVNMLE [L40N] | -0.372 ± 0.11
MKMAVISEHLGLSWAELARELQFSVEDINRIRVENPNSLGEQSVALLNLWVIREGQNANMENLYTALQSIDRGEIVNMLE [L40G] | -0.286 ± 0.06
MKMAVISEHLGLSWAELARELQFSVEDINRIRVENPNSLTEQSVALLNLWVIREGQNANMENLYTALQSIDRGEIVNMLE [L40T] | -0.081 ± 0.085
MKMAVISEHLGLSWAELARELQFSVEDINRIRVENPNSLIEQSVALLNLWVIREGQNANMENLYTALQSIDRGEIVNMLE [L40I] | 0.061 ± 0.14
MKMAVISEHLGLSWAELARELQFSVEDINRIRVENPNRLLEQSVALLNLWVIREGQNANMENLYTALQSIDRGEIVNMLE [S38R] | -0.478 ± 0.08
MKMAVISEHLGLSWAELARELQFSVEDINRIRVENPNELLEQSVALLNLWVIREGQNANMENLYTALQSIDRGEIVNMLE [S38E] | -0.514 ± 0.23
MKMAVISEHLGLSWAELARELQFSVEDINRIRVENPNNLLEQSVALLNLWVIREGQNANMENLYTALQSIDRGEIVNMLE [S38N] | -0.174 ± 0.11
MKMAVISEHLGLSWAELARELQFSVEDINRIRVENPNFLLEQSVALLNLWVIREGQNANMENLYTALQSIDRGEIVNMLE [S38F] | -0.345 ± 0.17
MKMAVISEHLGLSWAELARELQFSVEDINRIRVENPNLLLEQSVALLNLWVIREGQNANMENLYTALQSIDRGEIVNMLE [S38L] | -0.781 ± 0.16
MKMAVISEHLGLSWAELARELQFSVEDINRIRVENPNMLLEQSVALLNLWVIREGQNANMENLYTALQSIDRGEIVNMLE [S38M] | -0.353 ± 0.12

Variant | abundance fitness
MKMAVISEHLGLSWAELARELQFSVEDINRIRVENPNPLLEQSVALLNLWVIREGQNANMENLYTALQSIDRGEIVNMLE [S38P] | -0.822 ± 0.23
MKMAVISEHLGLSWAELARELQFSVEDINRIRVENPNKLLEQSVALLNLWVIREGQNANMENLYTALQSIDRGEIVNMLE [S38K] | -0.386 ± 0.25
MKMAVISEHLGLSWAELARELQFSVEDINRIRVENPNYLLEQSVALLNLWVIREGQNANMENLYTALQSIDRGEIVNMLE [S38Y] | -0.749 ± 0.25
MKMAVISEHLGLSWAELARELQFSVEDINRIRVENPNALLEQSVALLNLWVIREGQNANMENLYTALQSIDRGEIVNMLE [S38A] | -0.258 ± 0.081
MKMAVISEHLGLSWAELARELQFSVEDINRIRVENPNDLLEQSVALLNLWVIREGQNANMENLYTALQSIDRGEIVNMLE [S38D] | -0.048 ± 0.2
MKMAVISEHLGLSWAELARELQFSVEDINRIRVENPNTLLEQSVALLNLWVIREGQNANMENLYTALQSIDRGEIVNMLE [S38T] | -0.291 ± 0.13
MKMAVISEHLGLSWAELARELQFSVEDINRIRVENPNVLLEQSVALLNLWVIREGQNANMENLYTALQSIDRGEIVNMLE [S38V] | -0.351 ± 0.13
MKMAVISEHLGLSWAELARELQFSVEDINRIRVENPNWLLEQSVALLNLWVIREGQNANMENLYTALQSIDRGEIVNMLE [S38W] | -0.754 ± 0.21
MKMAVISEHLGLSWAELARELQFSVEDINRIRVENPNCLLEQSVALLNLWVIREGQNANMENLYTALQSIDRGEIVNMLE [S38C] | -0.099 ± 0.087
MKMAVISEHLGLSWAELARELQFSVEDINRIRVENPTSLLEQSVALLNLWVIREGQNANMENLYTALQSIDRGEIVNMLE [N37T] | -0.111 ± 0.18
MKMAVISEHLGLSWAELARELQFSVEDINRIRVENPWSLLEQSVALLNLWVIREGQNANMENLYTALQSIDRGEIVNMLE [N37W] | -0.36 ± 0.18
MKMAVISEHLGLSWAELARELQFSVEDINRIRVENPRSLLEQSVALLNLWVIREGQNANMENLYTALQSIDRGEIVNMLE [N37R] | -0.186 ± 0.092
MKMAVISEHLGLSWAELARELQFSVEDINRIRVENPSSLLEQSVALLNLWVIREGQNANMENLYTALQSIDRGEIVNMLE [N37S] | -0.064 ± 0.09
MKMAVISEHLGLSWAELARELQFSVEDINRIRVENPQSLLEQSVALLNLWVIREGQNANMENLYTALQSIDRGEIVNMLE [N37Q] | -0.444 ± 0.35
MKMAVISEHLGLSWAELARELQFSVEDINRIRVENPKSLLEQSVALLNLWVIREGQNANMENLYTALQSIDRGEIVNMLE [N37K] | 0.023 ± 0.13
MKMAVISEHLGLSWAELARELQFSVEDINRIRVENPLSLLEQSVALLNLWVIREGQNANMENLYTALQSIDRGEIVNMLE [N37L] | -0.199 ± 0.074
MKMAVISEHLGLSWAELARELQFSVEDINRIRVENPYSLLEQSVALLNLWVIREGQNANMENLYTALQSIDRGEIVNMLE [N37Y] | -0.322 ± 0.2
MKMAVISEHLGLSWAELARELQFSVEDINRIRVENPPSLLEQSVALLNLWVIREGQNANMENLYTALQSIDRGEIVNMLE [N37P] | -1.09 ± 0.48
MKMAVISEHLGLSWAELARELQFSVEDINRIRVENPVSLLEQSVALLNLWVIREGQNANMENLYTALQSIDRGEIVNMLE [N37V] | -0.277 ± 0.097
MKMAVISEHLGLSWAELARELQFSVEDINRIRVENPNSLLGQSVALLNLWVIREGQNANMENLYTALQSIDRGEIVNMLE [E41G] | -0.086 ± 0.035
MKMAVISEHLGLSWAELARELQFSVEDINRIRVENPNSLLCQSVALLNLWVIREGQNANMENLYTALQSIDRGEIVNMLE [E41C] | -0.173 ± 0.075
MKMAVISEHLGLSWAELARELQFSVEDINRIRVENPNSLLAQSVALLNLWVIREGQNANMENLYTALQSIDRGEIVNMLE [E41A] | -0.113 ± 0.057
MKMAVISEHLGLSWAELARELQFSVEDINRIRVENPNSLLIQSVALLNLWVIREGQNANMENLYTALQSIDRGEIVNMLE [E41I] | -0.579 ± 0.48

Variant | abundance fitness
MKMAVISEHLGLSWAELARELQFSVEDINRIRVENPNSLLPQSVALLNLWVIREGQNANMENLYTALQSIDRGEIVNMLE [E41P] | -0.574 ± 0.19
MKMAVISEHLGLSWAELARELQFSVEDINRIRVENPNSLLNQSVALLNLWVIREGQNANMENLYTALQSIDRGEIVNMLE [E41N] | 0.162 ± 0.13
MKMAVISEHLGLSWAELARELQFSVEDINRIRVENPNSLLDQSVALLNLWVIREGQNANMENLYTALQSIDRGEIVNMLE [E41D] | 0.007 ± 0.12
MKMAVISEHLGLSWAELARELQFSVEDINRIRVENPNSLLFQSVALLNLWVIREGQNANMENLYTALQSIDRGEIVNMLE [E41F] | -0.28 ± 0.11
MKMAVISEHLGLSWAELARELQFSVEDINRIRVENPNSLLHQSVALLNLWVIREGQNANMENLYTALQSIDRGEIVNMLE [E41H] | -0.161 ± 0.14
MKMAVISEHLGLSWAELARELQFSVEDINRIRVENPNSLLQQSVALLNLWVIREGQNANMENLYTALQSIDRGEIVNMLE [E41Q] | -0.1 ± 0.12
MKMAVISEHLGLSWAELARELQFSVEDINRIRVENPNSLLKQSVALLNLWVIREGQNANMENLYTALQSIDRGEIVNMLE [E41K] | 0.117 ± 0.094
MKMAVISEHLGLSWAELARELQFSVEDINRIRVENPNSLLMQSVALLNLWVIREGQNANMENLYTALQSIDRGEIVNMLE [E41M] | -0.275 ± 0.12
MKMAVISEHLGLSWAELARELQFSVEDINRIRVENPNSQLEQSVALLNLWVIREGQNANMENLYTALQSIDRGEIVNMLE [L39Q] | 0.019 ± 0.17
MKMAVISEHLGLSWAELARELQFSVEDINRIRVENPNSYLEQSVALLNLWVIREGQNANMENLYTALQSIDRGEIVNMLE [L39Y] | 0.004 ± 0.13
MKMAVISEHLGLSWAELARELQFSVEDINRIRVENPNSFLEQSVALLNLWVIREGQNANMENLYTALQSIDRGEIVNMLE [L39F] | -0.068 ± 0.14
MKMAVISEHLGLSWAELARELQFSVEDINRIRVENPNSDLEQSVALLNLWVIREGQNANMENLYTALQSIDRGEIVNMLE [L39D] | -0.063 ± 0.18
MKMAVISEHLGLSWAELARELQFSVEDINRIRVENPNSELEQSVALLNLWVIREGQNANMENLYTALQSIDRGEIVNMLE [L39E] | 0.105 ± 0.09
MKMAVISEHLGLSWAELARELQFSVEDINRIRVENPNSRLEQSVALLNLWVIREGQNANMENLYTALQSIDRGEIVNMLE [L39R] | -0.554 ± 0.074
MKMAVISEHLGLSWAELARELQFSVEDINRIRVENPNSHLEQSVALLNLWVIREGQNANMENLYTALQSIDRGEIVNMLE [L39H] | -0.42 ± 0.26
MKMAVISEHLGLSWAELARELQFSVEDINRIRVENPNSCLEQSVALLNLWVIREGQNANMENLYTALQSIDRGEIVNMLE [L39C] | 0.066 ± 0.14
MKMAVISEHLGLSWAELARELQFSVEDINRIRVENPNSILEQSVALLNLWVIREGQNANMENLYTALQSIDRGEIVNMLE [L39I] | -0.41 ± 0.43
MKMAVISEHLGLSWAELARELQFSVEDINRIRVENPNSTLEQSVALLNLWVIREGQNANMENLYTALQSIDRGEIVNMLE [L39T] | 0.116 ± 0.16
MKMAVISEHLGLSWAELARELQFSVEDINRIRVENPNSGLEQSVALLNLWVIREGQNANMENLYTALQSIDRGEIVNMLE [L39G] | -0.423 ± 0.15
MKMAVISEHLGLSWAELARELQFSVEDINRIRVENPNSWLEQSVALLNLWVIREGQNANMENLYTALQSIDRGEIVNMLE [L39W] | -0.262 ± 0.09
MKMAVISEHLGLSWAELARELQFSVEDINRIRVENPNSPLEQSVALLNLWVIREGQNANMENLYTALQSIDRGEIVNMLE [L39P] | 0.058 ± 0.12
MKMAVISEHLGLSWAELARELQFSVEDINRIRVENPNSMLEQSVALLNLWVIREGQNANMENLYTALQSIDRGEIVNMLE [L39M] | -0.075 ± 0.15
MKMAVISEHLGLSWAELARELQFSVEDINRIRVENPNSALEQSVALLNLWVIREGQNANMENLYTALQSIDRGEIVNMLE [L39A] | -0.103 ± 0.069
